Test system: mND1 TALE_L-BE_41-N(G108) + TALE_R-BE_41-C(G43) split base editor (synthetic)
Assay: cell_activity
Conditions: m.2820G>A allele in mouse cells

Sequence: CATTAGTAGAACGCA (double strand) [mND1 G2820 target]
- activity: 56.4%
